Here are results for 5 molecules from publication PMC10322944, “Cryo-EM and femtosecond spectroscopic studies provide mechanistic insight into the energy transfer in CpcL-phycobilisomes” (Nature Communications, 2023).

The chains are these.
B3: CpcC1 (rod linker protein) (natural protein)
chain: not shown
notes: phycocyanin-associated rod linker CpcC1 of Synechocystis sp; PCC 6803; Pfam00427 domain at the N-terminus, Pfam01383 domain at the C-terminus; native protein in the isolated CpcL-PBS; model started from the AlphaFold database entry; source: endogenous, Synechocystis 6803 ΔapcAB mutant strain; purified as part of CpcL-PBS (sucrose gradient)
B4: CpcL (linker protein of CpcL-PBS) (natural protein, UniProt P74625 1-249, looked up)
chain: MTLPLIAYAPVSQNQRVTNYEVSGDEHARIFTTEGTLSPSAMDNLIAAAYRQVFNEQQMIQSNRQIALESQFKNQQITVRDFIRGLALSDSFRRRNFEVNNNYRFVQMCIQRLLGRDVYSEEEKIAWSIVIATKGLPGFINELLNSQEYLENFGYDTVPYQRRRILPQRISGELPFARMPRYGADHREKLEAIGYFRNQAPLTYRWEWQKQPYPAGVYLAGKVVLYVGGALVSLGIIAVALSAWGIIGL
notes: linker protein CpcL (also called CpcG2) of Synechocystis sp; PCC 6803; Pfam00427 domain resolved, transmembrane region not resolved in the map; native protein in the isolated CpcL-PBS; model started from the AlphaFold database entry; also called CpcG2; source: endogenous, Synechocystis 6803 ΔapcAB mutant strain; purified as part of CpcL-PBS (sucrose gradient)

What all share (experiment): cryo-EM structure; CpcL-PBS isolated from the ΔapcAB strain on a sucrose gradient (0.75 M K/Na-PO4 pH 7.0, 0.0125% glutaraldehyde, 0.03% β-DDM, 22 °C); phosphate diluted on the grid with 50 mM Tris pH 7.0, 0.01% β-DDM; map at 2.64 Å
Series [1] concerns the molecule itself.
Series [2] deals with B4. The following applies: both partners purified.
Series [3] has as its target B3. The following applies: both partners purified.
Series [4] concerns the target T1, three-domain ferredoxin-NADP+ oxidoreductase (FNR3D) (Synechocystis sp. PCC 6803 (endogenous …, UniProt Q55318 1-413)).
T1 construct: ferredoxin-NADP+ oxidoreductase (PetH) of Synechocystis sp; only the CpcD (Pfam01383) domain is resolved in the map; model started from the AlphaFold database entry of PetH; also called PetH; source: endogenous, Synechocystis 6803 ΔapcAB mutant strain; purified as part of CpcL-PBS (sucrose gradient)
The settings on record: both partners purified.

T1 sequence (Q55318 whole entry): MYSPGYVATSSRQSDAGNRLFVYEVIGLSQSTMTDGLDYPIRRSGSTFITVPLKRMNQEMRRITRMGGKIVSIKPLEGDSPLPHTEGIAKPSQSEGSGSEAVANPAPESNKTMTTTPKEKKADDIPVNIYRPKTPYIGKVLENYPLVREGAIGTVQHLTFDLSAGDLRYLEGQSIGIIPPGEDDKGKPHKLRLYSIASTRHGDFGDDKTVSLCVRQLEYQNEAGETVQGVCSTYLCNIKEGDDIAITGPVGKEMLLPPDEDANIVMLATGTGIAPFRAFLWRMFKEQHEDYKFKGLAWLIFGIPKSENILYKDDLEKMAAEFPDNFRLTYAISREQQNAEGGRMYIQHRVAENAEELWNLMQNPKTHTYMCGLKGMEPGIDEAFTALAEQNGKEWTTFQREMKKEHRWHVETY

B1: phycocyanin (PC) αβ monomer (CpcA-CpcB heterodimer) (complex)
chain 1: not shown
chain 2: MFDVFTRVVSQADARGEYLSGSQLDALSATVAEGNKRIDSVNRITGNASAIVSNAARALFAEQPQLIQPGGNAYTSRRMAACLRDMEIILRYVTYATFTGDASVLEDRCLNGLRETYVALGVPGASVAAGVQKMKEAALDIVNDPNGITRGDCSAIVAEIAGYFDRAAAAVA
modifications: phycocyanobilin (PCB) covalently attached (bilin α84) | phycocyanobilin (PCB) covalently attached (bilins β82 and β152; printed β155 in p-0013)
notes: C-phycocyanin alpha subunit CpcA of Synechocystis sp; PCC 6803; as m1; C-phycocyanin beta subunit CpcB of Synechocystis sp; as m2; made for the self-association of the αβ monomer into trimers and hexamers; 18 αβ monomers stand in the three-layered CpcL-PBS; source: endogenous, Synechocystis 6803 ΔapcAB mutant strain; purified as part of CpcL-PBS (sucrose gradient)
In the case of B1, the stoichiometry N (usually the number of molecules, sites or subunits per partner or assembly) in series [1] amounted to 6.

B2: CpcB (phycocyanin β subunit) (natural protein, UniProt Q54714 1-172, looked up)
chain: MFDVFTRVVSQADARGEYLSGSQLDALSATVAEGNKRIDSVNRITGNASAIVSNAARALFAEQPQLIQPGGNAYTSRRMAACLRDMEIILRYVTYATFTGDASVLEDRCLNGLRETYVALGVPGASVAAGVQKMKEAALDIVNDPNGITRGDCSAIVAEIAGYFDRAAAAVA
modifications: phycocyanobilin (PCB) covalently attached (bilins β82 and β152; printed β155 in p-0013)
notes: C-phycocyanin beta subunit CpcB of Synechocystis sp; PCC 6803; native protein in the isolated CpcL-PBS; 18 copies in the three-layered CpcL-PBS; also called β-PC; PC β subunit; source: endogenous, Synechocystis 6803 ΔapcAB mutant strain; purified as part of CpcL-PBS (sucrose gradient)
With B2, in series [2], the binding result was “binds”.
B3: the “stoichiometry N” value in series [2] is 1.
Take B4: the binding result in series [3] was “binds”.

B5: CpcC2 (rod linker protein) (natural protein)
chain: not shown
notes: phycocyanin-associated rod linker CpcC2 of Synechocystis sp; PCC 6803; Pfam00427 domain at the N-terminus, Pfam01383 domain at the C-terminus; native protein in the isolated CpcL-PBS; model started from the AlphaFold database entry; source: endogenous, Synechocystis 6803 ΔapcAB mutant strain; purified as part of CpcL-PBS (sucrose gradient)
As for B5, the binding result in series [4] is “binds”.
